Assay results reported in US20100221248A1 (MIT, published 2010).
Where a chain is given by its changes, count along the chain named.

B1: IIA726 (mutant Fn3 domain, yeast surface-displayed clone) (designed binder)
chain: VSDVPGDLEVVAATPTSLLISWCTHLHWDYYRIFYGETGGNSPVQEFTVPALCPGATISGLKPGVDYTITAYAVTVGGDDWPISINYRTEIDEPSQ
notes: It contains a pair of Cys residues in the BC and DE loops; also called yeast surface-displaying IIA726
B2: IIA827 (mutant Fn3 domain, yeast surface-displayed clone) (designed binder)
chain: B1 chain with I83S
notes: Derived from IIA726 by a single mutation, printed '188S'; also called clone IIA827
B3: MBP-IIIA537 (designed binder)
chain: LGENLYFQSVSDVPRDLEVVVATPTSLLINWDLPFSDSYRITYGETGGNSPVQGFTVPGTESIATISGLKPGVDYTITVYAVASSGSNSYPISINYRTEIDKPSQ
notes: Fn3 domain as a C-terminal fusion to MBP, expressed in E. coli Rosetta(DE3); For PBMC labelling it was biotinylated and complexed with streptavidin-PE; also called MBP fusion of IIIA537; not shown: limits and vector linker not stat
B4: MBP-IIIA626 (designed binder)
chain: B3 chain with L33M, T42A, G54E, E61D, I63L, A83T
notes: Fn3 domain as a C-terminal fusion to MBP, expressed in E. coli Rosetta(DE3); For PBMC labelling it was biotinylated and complexed with streptavidin-PE; also called MBP fusion of IIIA626; not shown: limits and vector linker not stat
B5: MBP-IIA726 (designed binder)
chain: LGENLYFQSVSDVPGDLEVVAATPTSLLISWCTHLHWDYYRIFYGETGGNSPVQEFTVPALCPGATISGLKPGVDYTITAYAVTVGGDDWPISINYRTEIDEPSQ
notes: Fn3 domain as a C-terminal fusion to MBP; It was first expressed in Rosetta(DE3), then in Rosetta-gami 2 to promote the disulfide bond between the BC and DE loops; For PBMC labelling it was biotinylated and complexed with streptavidin-PE; also called MBP fusion of IIA726; not shown: limits and vector linker not stat
B6: MBP-IIA827 (designed binder)
chain: B5 chain with I92S
notes: Produced in Rosetta-gami 2; not shown: limits and vector linker not stat

Tests used:
[1] = biological target: T1, RIIB tetramer (biotinylated human FcγRIIB complexed to streptavidin-PE) (human, UniProt P31994 43-217; P22629 37-163, limits assumed, PE conjugate; singly biotinylated); assay: flow cytometry titration of yeast surface-displayed IIA726 with streptavidin-PE RIIB tetramer, 2 h at room temperature
T1 construct: Biotinylated FcR incubated with streptavidin-PE at a 4:1 molar ratio; also called PE-tagged RIIB tetramer
Method: (§1) The yeast cells were washed and analyzed by flow cytometry.
(§2) Characterization of Individual Clones. Plasmid DNA was recovered from the later library generations (Zymoprep II kit) and transformed into competent DH5a bacteria (Invitrogen). Individual colonies (usually ten) were grown, miniprepped, and sequenced, as well as re-transformed into EBY100 yeast (EZ Yeast Transformation Kit, Zymo Research). The resulting clones were cultured in SD-CAA and induced in SG-CAA for analysis. To rapidly compare different clones, 0.1 OD.ml aliquots of yeast were labeled with a low and a high concentration of PE-tagged RIIA (1 nM, 30 nM) or RIIIA (0.3 nM, 10 nM) tetramer for 1 hour at RT prior to flow cytometry (Coulter Epics XL). The apparent tetramer Kd was estimated from the ratio of the two mean fluorescence readings. […] The labeling volumes (in PBSA) were chosen to give at least a 10-fold excess of FcR over Fn3. The yeast cells were centrifuged and washed with 0.5 ml PBSA for analysis by flow cytometry. The Kd value was determined by fitting the data to the equation y=A[tetramer]/([tetramer]+Kd)+B.

[2] = biological target: T2, RIIA131R tetramer (biotinylated human FcγRIIA 131R complexed to streptavidin-PE) (human, UniProt P12318 34-217; P22629 37-163, limits assumed, PE conjugate; singly biotinylated); assay: flow cytometry titration of yeast surface-displayed IIA726 with streptavidin-PE RIIA131R tetramer, 2 h at room temperature
T2 construct: Biotinylated FcR incubated with streptavidin-PE at a 4:1 molar ratio; Kd values measured against it are apparent (avid) values; also called RIIA tetramer; PE-tagged RIIA tetramer
Method: as §1, §2

[3] = biological target: T2, RIIA131R tetramer (biotinylated human …); assay: yeast display titration with PE-tagged tetramer, flow cytometry; apparent (avid) Kd; parent clone IIA726 from the seventh FACS sort
Method: as §1, §2

[4] = biological target: T2, RIIA131R tetramer (biotinylated human …); assay: yeast display with PE-tagged tetramer, flow cytometry; apparent (avid) Kd; clone IIA827, IIA726 with the single mutation printed 188S
Method: as §2

[5] = biological target: T1, RIIB tetramer (biotinylated human …); assay: yeast display, flow cytometry with PE-tagged tetramer
[6] = biological target: T3, human FcγRIIIA on the surface of human peripheral blood mononuclear cells (non-lymphocyte gate) (human, UniProt P08637 17-254); assay: flow cytometry of human PBMCs with biotinylated MBP-Fn3 complexed to streptavidin-PE
T3 construct: whole, on cells; The target is inferred from the stated aim of the experiment, which was recognition of FcRs expressed on cell surfaces; also called RIIIA on PBMCs
From the text: To determine whether the Fn3 domains were able to recognize FcRs expressed on cell surfaces, each MBP-Fn3 fusion protein was biotinylated, complexed with streptavidin-PE and used to label human peripheral blood mononuclear cells (PBMCs).

[7] = biological target: T4, human FcγRIIA, 131H allele, soluble (human, UniProt P12318 34-217, limits assumed); assay: SPR (Biacore T100), MBP-Fn3 immobilized, soluble FcR injected
T4 construct: also called hFcγRIIA
T4 sequence (looked up): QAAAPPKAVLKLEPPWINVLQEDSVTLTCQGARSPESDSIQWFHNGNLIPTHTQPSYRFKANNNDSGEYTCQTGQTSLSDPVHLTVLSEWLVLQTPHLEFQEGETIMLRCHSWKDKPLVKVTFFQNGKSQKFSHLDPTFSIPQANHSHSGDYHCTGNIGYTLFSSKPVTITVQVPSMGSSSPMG
Method: (§3) Surface Plasmon Resonance Analysis. Steady state affinity measurements were performed on a Biacore T100 biosensor. MBP-Fn3 fusion proteins were immobilized to CM5 sensor chips (Biacore) by standard amine coupling. […] Dissociation constants were calculated after subtraction of background binding to a control flow cell using Biacore T100 Evaluation software.

[8] = biological target: T5, human FcγRIIA, 131R allele, soluble (human, UniProt P12318 34-217, limits assumed); assay: as above
T5 construct: also called hFcγRIIA
T5 sequence (looked up): T4 sequence (looked up) with H134R
Method: as §3

human FcγRIIB, soluble = biological target: T6, human FcγRIIB, soluble (human, UniProt P31994 43-217, limits assumed); assay: as above
T6 construct: also called hFcγRIIB
T6 sequence (looked up): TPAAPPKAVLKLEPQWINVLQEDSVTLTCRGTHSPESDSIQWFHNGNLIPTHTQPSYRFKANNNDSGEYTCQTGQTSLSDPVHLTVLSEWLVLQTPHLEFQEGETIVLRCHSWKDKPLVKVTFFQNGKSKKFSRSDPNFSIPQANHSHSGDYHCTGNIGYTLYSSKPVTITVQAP
Method: as §3

[9] = biological target: T4, human FcγRIIA, 131H allele, soluble; assay: SPR (Biacore T100), steady state, MBP-Fn3 immobilized, soluble FcR injected
Method: as §3

[10] = biological target: T5, human FcγRIIA, 131R allele, soluble; assay: as above
Method: as §3

T2 sequence (P22629 37-163 limits assumed, one chain of several): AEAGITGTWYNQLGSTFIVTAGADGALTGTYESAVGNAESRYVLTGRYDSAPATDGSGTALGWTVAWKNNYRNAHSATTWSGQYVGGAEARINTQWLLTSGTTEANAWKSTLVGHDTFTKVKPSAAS
T3 sequence (P08637 17-254): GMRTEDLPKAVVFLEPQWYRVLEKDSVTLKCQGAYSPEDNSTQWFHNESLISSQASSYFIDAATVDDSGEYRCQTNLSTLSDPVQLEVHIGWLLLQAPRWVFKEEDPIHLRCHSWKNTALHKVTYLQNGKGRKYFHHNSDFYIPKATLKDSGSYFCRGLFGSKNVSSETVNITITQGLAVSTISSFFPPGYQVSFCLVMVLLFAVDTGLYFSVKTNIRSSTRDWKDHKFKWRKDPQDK
T1 sequence (P22629 37-163 limits assumed, one chain of several): as the sequence (P22629 37-163 limits assumed, one chain of several) above

Binder	binding result [6]	binding result [7]	binding result [8]	binding result (human FcγRIIB, soluble)	other results
B1					binding result [1]: no binding (tested: 100 nM); EC50 (read off the curve) [2]: ~1 nM; Kd [3]: 1.2 nM
B2					Kd [4]: 0.54 nM; binding result [5]: no binding (tested: 100 nM)
B3	binds	no binding	no binding	no binding	
B4	binds	no binding	no binding	no binding	
B5				no binding	
B6					Kd [9]: 6200 nM; Kd [10]: 850 nM
